# Reference: the DeepSol protein solubility set
# Experiment: soluble on expression in E. coli; label from the status in PepcDB or PDB records
row,Sequence,soluble on expression in E. coli
1,MSTPTGQPIGLGLPDAPLPVLAPRRKTRQLMVGNVGVGSDYPVSVQSMTTTKTHDVNATLQQIAQLTASGCDIVRVACPKTVDAEALPAIAKKSPIPVIADIHFQPKYIFSAIDAGCAAVRVNPGNIKEFDGRVKEVAKAAGDAGIPIRIGVNAGSLDKRIMEKYGKATPEALVESALWEAGLFEDCGFGDIAISVKHNDPVIMVEAYRQLAAQSDYPLHLGVTEAGPAFQGTIKSSVAFGSLLSQGIGDTIRVSLSADPVEEIKVGDQILQSLNLRKRGLEIVSCPSCGRAQVDVYSLAEEVTAALDGMSIPLRVAVMGCVVNGPGEARDADLGVASGNGKGQIFVRGEVIKTVPESQIVETLIEEAVRLAEAEGLEIEEGAGPQVKITR,not soluble
2,MSTQPDTSLRATKRLKTRISVEDAATALVLRDGFDNVTVEDICAAAEISKRTFFNYFDSKENAVFGDIQVDILPQLREEFLSHPHEDLPEAVIRLHMNLVFSGKDFDPHTRGEIIRRRKTIRHNNPERSFNYNALYHKVFINFKTLVNEYFEHFPEQRRLGGDVDVEATAVVLSSSYAIRFGFTLWADSPSASFSTLEESCLEALVHLRTINKGL,not soluble
3,MSTSDTPRTYHHGNLPAVLRQAAWDIVGEAGVRSVSLRECARRANVSHAAPAHHFGSLENLLAEVVADGYERMVDAVQAAQRELDDPVLGCGMGYVNFARQYPQHFRLMFGMTGVNRALPRLVNSGEATLQLLRQSLRTAWIAKNGVEPEPALLEQRTLLAWSTAHGYASLAIDRTTVEPFVVSAESILQPMAVFLLTP,not soluble
4,MSTSSVRFAFRRFWQSETGPKTVHFWAPTLKWGLVFAGFSDMKRPVEKISGAQNLSLLSTALIWTRWSFVIKPRNILLASVNSFLCLTAGYQLGRIANYRIRNGDSISQLCSYILSGADESKKEITTGR,not soluble
5,MSTTANKERCLEMVAAWNRWDVSGVVAHWAPDVVHYDDEDKPVSAEEVVRRMNSAVEAFPDLRLDVRSIVGEGDRVMLRITCSATHQGVFMGIAPTGRKVRWTYLEELRFSEAGKVVEHWDVFNFSPLFRDLGVVPDGL,soluble
6,MSTTKKGDTYNEAWVKDTNGFDILMGQFAHNIENIWGFKEVVIAGPKDYVKYTDQYQTRSHINFDDGTITIETIAGTEPAAHLRRAIIKTLLMGDDPSSVDLYSDVDDITISKEPFLYGQVVDNTGQPIRWEGRASNFADYLLKNRLKSRSNGLRIIYSVTINMVPNHLDKRAHKYLGMVRQASRKYGVDESLILAIMQTESSFNPYAVSRSDALGLMQVVQHTAGKDVFRSQGKSGTPSRSFLFDPASNIDTGTAYLAMLNNVYLGGIDNPTSRRYAVITAYNGGAGSVLRVFSNDKIQAANIINTMTPGDVYQTLTTRHPSAESRRYLYKVNTAQKSYRRRLEHHHHHH,soluble
7,MSTWRDSLLPASFRGVGFFIEKAVVPVGRKGQLHEFPQRDEPYFESLGKQAQVHTLTAFIVGRDCFEKRDNLLQALEKDGAGELVHPWLGRMQVQV,not soluble
8,MSTYDTAVLDDTLVSCLSQLIGAEHIDTLTLEGRFEITRIAAALSGRPGPAPRAILMSGLQGSGKTTLARALEAAGFRRLCPDEEMFRRYGHYGRDFPRGEFRVREAPVLKDIALELQELLTAGHEVVVDHGFWTREERAQWAMTVMEAGGKPVLIYLPVPHEVRWDRIRKRNEQSLVDANSIEFSEEDLLRHAGRFSPPTDDEPHIVYDGQPDSVLADIQLSRHFDALEHHHHHH,not soluble
9,MSVAGLKKQFHKATQKVSEKVGGAEGTKLDDDFKEMERKVDVTSRAVMEIMTKTIEYLQPNPASRAKLSMINTMSKIRGQEKGPGYPQAEALLAEAMLKFGRELGDDCNFGPALGEVGEAMRELSEVKDSLDIEVKQNFIDPLQNLHDKDLREIQHHLKKLEGRRLDFDYKKKRQGKIPDEELRQALEKFDESKEIAESSMFNLLEMDIEQVSQLSALVQAQLEYHKQAVQILQQVTVRLEERIRQASSQPRREYQPKPRMSLEFPTGDSTQPNGGLSHTGTPKPSGVQMDQPCCRALYDFEPENEGELGFKEGDIITLTNQIDENWYEGMLHGHSGFFPINYVEILVALPH,soluble
10,MSVKISGKDYAGMYGPTKGDRVRLADTDLIIEIEEDYTVYGDECKFGGGKSIRDGMGQSPSAARDDKVLDLVITNAIIFDTWGIVKGDIGIKDGKIAGIGKAGNPKVMSGVSEDLIIGASTEVITGEGLIVTPGGIDTHIHFICPQQIETALFSGITTMIGGGTGPADGTNATTCTPGAFNIRKMLEAAEDFPVNLGFLGKGNASFETPLIEQIEAGAIGLKLHEDWGTTPKAIDTCLKVADLFDVQVAIHTDTLNEAGFVENTIAAIAGRTIHTYHTEGAGGGHAPDIIKIASRMNVLPSSTNPTMPFTVNTLDEHLDMLMVCHHLDSKVKEDVAFADSRIRPETIAAEDILHDMGVFSMMSSDSQAMGRVGEVIIRTWQTAHKMKLQRGALPGEKSGCDNIRAKRYLAKYTINPAITHGISQYVGSLEKGKIADLVLWKPAMFGVKPEMIIKGGFIIAGRMGDANASIPTPQPVIYKNMFGAFGKAKYGTCVTFVSKASLENGVVEKMGLQRKVLPVQGCRNISKKYMVHNNATPEIEVDPETYEVKVDGEIITCEPLKVLPMAQRYFLF,not soluble
11,MSVPAGSVSCLANALLNLRSSTDYNADHGVKNSILNFSNSKDASRFDGSESWSSSVLDKNQFIVAGSDSVKHFVAISTQGRGDHDQWVTSYKLRYTLDNVNWVEYNNGEIINANKDRNSIVTINFNPPIKARSIAIHPQTYNNHISLRWELYALPVKSYSNPSVQVGEVSIGDRSLNSGTGSRTIVRHVKFPVEFLSVPIVSIGCKKVDAHTDNGQMRWEGKSENITTKGFDLTFITWGNNAVYDLTFDYVAVEFNN,soluble
12,MSVQSITESNQPPVICLMGPTASGKTALAMALKDALPCDIVSVDSALIYRDMDIGTAKPTKSELVQYPHRLIDLRDASESYSAADFCRDALVEIAEIRSNGRIPLLVGGTMMYFKSLIEGISPLPTANPEIRQAIEAEALSKGWQAMHDQLAEIDPVSAERIHPNDPQRITRALEVYRLTSNTLTQLTQIKGAKLAGDVLQLAITPRERSTLHERIALRYQQMIDLGFEQEVIKLKSRDDLHQDLPSIRCVGYRQMWQHLEGEFDHDEMIFRGVCATRQLAKRQLTWLRNWPDLHWLTTDDKTNLAQVLSLLEAKH,not soluble
13,MSVVGEERKRTILEKVEFKGKVKVSELAREFAVSTETIRRYLEELDREKKLKKVYGGAVQLPGAGVEAPMLEREMLHIEEKKRIGYKAATFVEDGDVIAIDDGSTPLQMVPYLVHRKNLTIVTSSFPVATQLISSINKKMFHGEVLFIGGKVSPKHSRVSGSISQQVIQQFHFHKAFVSIDGLLPSFGVSSFELEKAKLSEAMMKLAEKTYILCDHTKVGVKGNYRIAAISRIQHVICDKKMPYSFEEELMKHNIQWTVCLEHHHHHH,soluble
14,MSVVSLVGQMYKREKPIPEWKTLMLRELEELFSKHRVVLFADLTGTPTFVVQRVRKKLWKKYPMMVAKKRIILRAMKAAGLELDDNLLDDLVRGQMLLVFADGNPFKIVKEVEKEKVAMPVKPGDKAETEIRIPEGMTNLTPGPILSVFGKLRIQYQVRGGKIYIAKETVVAKPGDVISEDLAGLLMALGIRPIEKGVRVKFAIDGGVLITEDLLRPDIEAFRGDVIDAAKEALGLATEIVYMPVPEAVESAIVKAALAASALAAETGFIAPGTVEDVVRKAIAEEAAVVALLGDKARELGIEEAAPAAAPAAEEKAEEEKKEEEEEKKEDQELSGLDSIFGGF,soluble
15,MSWKFEEKSPIYAQIAQHVMMQIISQEIKSGDQLPTVREYAEIAGVNPNTMQRAFTELEREGMVYSQRTAGRFVTDDQKLIARKRRELAISELESFITNMTKMGFSHTEIIPVLTSFLKEDSQ,not soluble
16,MSWSLLSNIIKKFTLLHHFQPIGYIYKYIHICTLNHSLGSCVLQANYSIQNNLRSRTLFIQSEITYSHSLESTHFFGILIFFNIKFRVFNRINDPWTVLDNVPEVMFHDRFFINDFTFWVDVLQEAFRMRRWIFRFEQLVVNPSFSNSQWRIIF,soluble
